This passage reports Kd results from PMC5077151, “Wild-Type U2AF1 Antagonizes the Splicing Program Characteristic of U2AF1-Mutant Tumors and Is Required for Cell Survival”.

One series has as its target U2AF1 WT;U2AF2;SF1 (Homo sapiens?;Homo sapiens?;Homo …, UniProt Q01081;P26368-2;Q15637 1-193;85-471;1-255, ||). Briefly: fluorescence anisotropy; 20 nM 5'-fluorescein RNA, size-exclusion chromatography buffer (composition, pH and temperature not in the material), 384-well plate, 3 replicates. Particulars: protein: recombinant;recombinant;recombinant; tags: ;;; copies: 1;1;1; label: 5' fluorescein. For orientation: Polarisation of emitted light reports the rotation of a fluorescent probe.

A further series has as its target U2AF1 S34F;U2AF2;SF1 (Homo sapiens?;Homo sapiens?;Homo …, UniProt Q01081;P26368-2;Q15637 1-193;85-471;1-255, S34F||). The description is as above. Particulars: protein: recombinant;recombinant;recombinant; tags: ;;; copies: 1;1;1; label: 5' fluorescein.

U2AF1 WT;U2AF2;SF1, sequence (Q01081 1-193, chain 1 of 3): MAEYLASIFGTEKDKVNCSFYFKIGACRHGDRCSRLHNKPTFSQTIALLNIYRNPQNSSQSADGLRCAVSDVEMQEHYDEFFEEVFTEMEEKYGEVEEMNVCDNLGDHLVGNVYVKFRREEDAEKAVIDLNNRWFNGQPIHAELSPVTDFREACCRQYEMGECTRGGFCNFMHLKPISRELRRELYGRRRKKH
U2AF1 WT;U2AF2;SF1, sequence (P26368 other isoform, or with tags, fused parts or gaps ||, chain 2 of 3): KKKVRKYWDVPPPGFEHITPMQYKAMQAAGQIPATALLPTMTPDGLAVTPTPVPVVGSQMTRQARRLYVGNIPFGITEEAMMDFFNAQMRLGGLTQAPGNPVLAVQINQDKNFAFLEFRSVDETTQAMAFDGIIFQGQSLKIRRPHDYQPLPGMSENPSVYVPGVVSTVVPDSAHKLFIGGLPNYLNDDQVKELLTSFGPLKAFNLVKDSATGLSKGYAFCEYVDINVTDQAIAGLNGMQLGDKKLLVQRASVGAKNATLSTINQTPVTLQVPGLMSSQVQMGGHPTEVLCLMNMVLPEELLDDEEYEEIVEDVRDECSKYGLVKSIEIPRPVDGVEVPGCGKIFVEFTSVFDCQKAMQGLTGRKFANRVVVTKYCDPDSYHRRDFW
U2AF1 WT;U2AF2;SF1, sequence (Q15637 1-255, chain 3 of 3): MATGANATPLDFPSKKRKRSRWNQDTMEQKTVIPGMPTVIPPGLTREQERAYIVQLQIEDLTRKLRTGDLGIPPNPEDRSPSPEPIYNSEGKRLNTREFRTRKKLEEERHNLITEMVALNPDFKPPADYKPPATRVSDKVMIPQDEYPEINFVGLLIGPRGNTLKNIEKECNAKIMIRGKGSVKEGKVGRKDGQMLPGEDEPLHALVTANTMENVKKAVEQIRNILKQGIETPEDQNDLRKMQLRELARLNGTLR
U2AF1 S34F;U2AF2;SF1, sequence (Q01081 1-193 S34F, chain 1 of 3): as the sequence (Q01081 1-193, chain 1 of 3) above, with S34F counted along it
U2AF1 S34F;U2AF2;SF1, sequence (P26368 other isoform, or with tags, fused parts or gaps S34F|| | S34F S34F, chain 2 of 3): as the sequence (P26368 other isoform, or with tags, fused parts or gaps ||, chain 2 of 3) above
U2AF1 S34F;U2AF2;SF1, sequence (Q15637 1-255, chain 3 of 3): as the sequence (Q15637 1-255, chain 3 of 3) above

B1: MED15 proximal 3' splice site (ssRNA)
RNA: GUCUGUUGUCCCUCUGUCCUCAAAGAUGAUCAC
The term Kd denotes a measure of binding affinity in units of concentration. For B1, the figures for the Kd in the series with U2AF1 WT;U2AF2;SF1 and with U2AF1 S34F;U2AF2;SF1 were 0.208 ± 0.035 µM and 0.483 ± 0.106 µM, respectively.

B2: FXR1 proximal 3' splice site (ssRNA)
RNA: UUUUUCUCAUCUUUAACAGUCACAGUUGCAGAU
Take B2: the Kd was 0.071 ± 0.006 µM in the series with U2AF1 WT;U2AF2;SF1 and 0.038 ± 0.006 µM with U2AF1 S34F;U2AF2;SF1.

B3: FMR1 proximal 3' splice site (ssRNA)
RNA: GUAUAUAACUUUUAACUCUCGAUAGGAACUAAUUC
As for B3, the equilibrium dissociation constant (Kd) with U2AF1 WT;U2AF2;SF1 was found to be 0.188 ± 0.027 µM; with U2AF1 S34F;U2AF2;SF1 it was 0.281 ± 0.044 µM.

B4: FXR1 distal 3' splice site (ssRNA)
RNA: UGAAAAAGUUGUCUCCCUUUGGCAGGCAAAAGA
Consider B4, for which the dissociation constant Kd with U2AF1 WT;U2AF2;SF1 stood at 0.041 ± 0.006 µM; with U2AF1 S34F;U2AF2;SF1 it was 0.046 ± 0.011 µM.

B5: ZFAND1 distal 3' splice site (ssRNA)
RNA: CAUUUCCUCCUUUUUGCAUUUUCAGGUGACUGU
With B5, the equilibrium dissociation constant (Kd) is 0.053 ± 0.004 µM with U2AF1 WT;U2AF2;SF1 and 0.043 ± 0.007 µM with U2AF1 S34F;U2AF2;SF1.

B6: ZFAND1 proximal 3' splice site (ssRNA)
RNA: UAAACACUUGCUAUUAUUAUUUAAGCCUUGAAC
In the case of B6, the Kd was found to be 0.024 ± 0.001 µM with U2AF1 WT;U2AF2;SF1 and 0.005 ± 0.001 µM with U2AF1 S34F;U2AF2;SF1.

B7: ATR proximal 3' splice site (ssRNA)
RNA: UCUUCCAUAUCCACCUUUUCCUAAGAUGGCAAG
On to B7, for which the Kd in the series with U2AF1 WT;U2AF2;SF1 turned out to be 0.188 ± 0.052 µM.

B8: CEP164 proximal 3' splice site (ssRNA)
RNA: UUGACUGUCCUUCUCUAUUUUGAAGCCUUCACAGG
For B8, the Kd with U2AF1 WT;U2AF2;SF1 was 0.012 ± 0.001 µM; with U2AF1 S34F;U2AF2;SF1 it was 0.049 ± 0.009 µM.

B9: CEP164 distal 3' splice site (ssRNA)
RNA: CACUUGUCAUCAUUUUUGUUUCUAGAGUGUCCACA
In the case of B9, the Kd in the series with U2AF1 WT;U2AF2;SF1 is 0.497 ± 0.046 µM; with U2AF1 S34F;U2AF2;SF1, 0.447 ± 0.063 µM.

B10: FMR1 distal 3' splice site (ssRNA)
RNA: GAAGCAUCAAAUGCUUCUGAAACAGAAUCUGACCA
As to B10, the equilibrium dissociation constant (Kd) in the series with U2AF1 WT;U2AF2;SF1 was 0.427 ± 0.02 µM; in the series with U2AF1 S34F;U2AF2;SF1 it was 0.444 ± 0.058 µM.

B11: ATR distal 3' splice site (ssRNA)
RNA: UUGGUUUUAUGUUUCUUCUUUUUAGGCCAAGAC
As for B11, the Kd is 0.007 ± 0.0005 µM in the series with U2AF1 WT;U2AF2;SF1 and 0.049 ± 0.006 µM with U2AF1 S34F;U2AF2;SF1.

B12: MED15 distal 3' splice site (ssRNA)
RNA: GCCGGCUGAGCCCCUCCACUUCCAGGUCAGCCA
Turning to B12, the figures for the dissociation constant Kd with U2AF1 WT;U2AF2;SF1 and with U2AF1 S34F;U2AF2;SF1 were 0.157 ± 0.025 µM and 0.032 ± 0.008 µM, respectively.
